The record followed here is patent US20210155691A1, “METHODS OF PREVENTING OR TREATING NON-HEMATOPOIETIC SLAMF7 POSITIVE AND SLAMF7 NEGATIVE CANCERS” (ADAERATA, LIMITED PARTNERSHIP, priority 2018, published 2021).

Assay [1] has as its system thymocytes. Nature of the assay: Induction of apoptosis in thymocytes (annexin V). The assay is classed as cell-based, mouse. Particulars: 1 μM; 10 hours at 37° C.; thymocytes from C57BL/6 mice; data not shown.
Assay [2] deals with T1, mouse CD11b (integrin alphaM, alpha subunit of Mac-1) (mouse, UniProt P05555 17-1153).
T1 construct: whole, on cells; Endogenous protein in macrophage lysates; It forms Mac-1 together with CD18; also called Mac-1 (CD11b); CR3 alpha subunit
As to the kind of experiment: anti-CD11b immunoprecipitation from BMDM lysates, mass spectrometry. The procedure: Authenticated cells. (FIG. 9D) Lysates from the mouse macrophage cell line RAW264.7 expressing GFP alone or in combination with a FLAG-tagged version of mouse SLAMF7 (FLAG-SLAMF7) were immunoprecipitated with anti-FLAG. They were then probed by immunoblotting with anti-CD11b (Mac-1) or anti-SLAMF7. Total cell lysates were analyzed in parallel. (FIG. 9E) Co-localization of SLAMF7 and CD11b in RAW264.7 cells expressing GFP alone or with FLAG-SLAMF7 assessed by immunofluorescence. Semi-confluent RAW264.7 cells expressing GFP alone (bottom) or in combination with FLAG-SLAMF7 (top) were fixed and stained with antibodies against FLAG, CD11b (Mac-1) or CD18, as detailed in Example 1. Staining was detected by confocal microscopy. Scale bar, 5 μm. […] (FIG. 9F) As in FIG. 9E, except that only RAW264.7 cells expressing FLAG-SLAMF7 were analyzed and that antibodies coupled to different fluorophores were used. […] (FIGS. 9G-A and 9G-B) RAW264.7 derivatives expressing GFP alone or in combination with FLAG-SLAMF7 were analyzed by flow cytometry, using antibodies directed against FLAG and SLAMF7 (dotted lines). […]
Immunoprecipitations, mass spectrometry, immunoblots. […] In brief, immunoprecipitated proteins were digested with trypsin (Promega, Madison, Wis.) and analyzed by LC-MS/MS on a LTQ Orbitrap™ Velos (ThermoFisher Scientific, Bremen, Germany) equipped with a Proxeon Nanoelectrospray™ ion source. […]

T1 sequence (P05555 17-1153): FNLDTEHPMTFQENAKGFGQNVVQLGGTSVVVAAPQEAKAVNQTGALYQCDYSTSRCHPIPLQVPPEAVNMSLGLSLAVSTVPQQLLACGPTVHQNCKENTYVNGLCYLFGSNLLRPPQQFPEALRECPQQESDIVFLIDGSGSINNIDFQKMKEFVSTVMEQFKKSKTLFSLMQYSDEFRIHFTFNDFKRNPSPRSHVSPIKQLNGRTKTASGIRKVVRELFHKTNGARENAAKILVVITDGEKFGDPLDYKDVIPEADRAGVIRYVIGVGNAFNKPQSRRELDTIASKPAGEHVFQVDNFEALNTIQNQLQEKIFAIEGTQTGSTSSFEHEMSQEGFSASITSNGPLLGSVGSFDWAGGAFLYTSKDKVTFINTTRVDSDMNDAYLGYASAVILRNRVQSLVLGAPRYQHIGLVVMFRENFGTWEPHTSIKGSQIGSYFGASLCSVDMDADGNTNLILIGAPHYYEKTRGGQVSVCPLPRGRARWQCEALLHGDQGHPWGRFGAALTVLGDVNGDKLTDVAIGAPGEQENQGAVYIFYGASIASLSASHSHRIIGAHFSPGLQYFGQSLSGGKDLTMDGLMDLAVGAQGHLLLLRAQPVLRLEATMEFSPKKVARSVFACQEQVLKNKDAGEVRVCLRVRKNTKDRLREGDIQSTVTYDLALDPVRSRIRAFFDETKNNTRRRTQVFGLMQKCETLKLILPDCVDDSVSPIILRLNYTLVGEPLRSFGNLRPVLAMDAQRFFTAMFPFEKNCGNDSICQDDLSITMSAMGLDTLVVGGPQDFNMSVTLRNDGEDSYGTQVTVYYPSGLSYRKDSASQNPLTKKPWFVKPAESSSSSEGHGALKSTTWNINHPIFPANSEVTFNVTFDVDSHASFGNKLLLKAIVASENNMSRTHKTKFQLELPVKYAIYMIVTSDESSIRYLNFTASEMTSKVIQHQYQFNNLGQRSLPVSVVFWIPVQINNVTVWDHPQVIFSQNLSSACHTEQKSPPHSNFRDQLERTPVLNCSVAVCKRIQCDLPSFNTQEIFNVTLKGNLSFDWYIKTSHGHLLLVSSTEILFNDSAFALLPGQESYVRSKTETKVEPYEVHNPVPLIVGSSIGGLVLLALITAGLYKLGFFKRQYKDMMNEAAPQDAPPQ

Turning to `C[C@@H]1C[C@H]2[C@@H]3CCC4=CC(=O)C=C[C@]4(C)[C@@]3(F)[C@@H](O)C[C@]2(C)[C@@]1(O)C(=O)CO` [dexamethasone], in assay [1], the “cells becoming apoptotic (annexin V-positive)” value is “about 70%”.

B1: mouse CD64 (Fc receptor) (receptor, UniProt P26151 25-404, looked up)
chain: EVVNATKAVITLQPPWVSIFQKENVTLWCEGPHLPGDSSTQWFINGTAVQISTPSYSIPEASFQDSGEYRCQIGSSMPSDPVQLQIHNDWLLLQASRRVLTEGEPLALRCHGWKNKLVYNVVFYRNGKSFQFSSDSEVAILKTNLSHSGIYHCSGTGRHRYTSAGVSITVKELFTTPVLRASVSSPFPEGSLVTLNCETNLLLQRPGLQLHFSFYVGSKILEYRNTSSEYHIARAEREDAGFYWCEVATEDSSVLKRSPELELQVLGPQSSAPVWFHILFYLSVGIMFSLNTVLYVKIHRLQREKKYNLEVPLVSEQGKKANSFQQVRSDGVYEEVTATASQTTPKEAPDGPRSSVGDCGPEQPEPLPPSDSTGAQTSQS
notes: whole, on cells; Endogenous protein in macrophage lysates
Regarding B1, the binding result in assay [2] was “no binding”.

B2: mouse CD16 (Fc receptor) (receptor, UniProt P08508 31-261, looked up)
chain: ALPKAVVKLDPPWIQVLKEDMVTLMCEGTHNPGNSSTQWFHNGRSIRSQVQASYTFKATVNDSGEYRCQMEQTRLSDPVDLGVISDWLLLQTPQRVFLEGETITLRCHSWRNKLLNRISFFHNEKSVRYHHYKSNFSIPKANHSHSGDYYCKGSLGSTQHQSKPVTITVQDPATTSSISLVWYHTAFSLVMCLLFAVDTGLYFYVRRNLQTPREYWRKSLSIRKHQAPQDK
notes: as for B1
Consider B2, for which the binding result in assay [2] was “no binding”.
